Assay results as given in patent US11452709B2, “Compositions and methods for preventing and treating radiation-induced bystander effects caused by radiation or radiotherapy” (The Regents of the University of Colorado, priority 2017, dated 2022).

Tests used:
Assay type in all cases: in vivo, C. elegans
[1] = tested on: germ cell corpses in ced-1(e1735) animals; test: Germ cell corpse assay with recombinant proteins in liquid culture
Description: Growing C. elegans animals in 96-well plates. HB101 bacteria were mixed with 100 μL conditioned medium (0.1 μg/μL) or 100 μL S-Medium containing 2.8 μM of recombinant tCPR-4 proteins (wild-type or mutant) or 0.27 μM recombinant human cathepsin B in a 96-well plate. Approximately 60 L4 larvae were transferred into each well of the plate. After being cultured in liquid media for 48 hours, these animals were scored for the numbers of germ cell corpses and mitotic nuclei. Quantification of germ cell corpses. L4 animals were cultured in liquid media in a 96-well plate as described above. After 48 hours, they were transferred to NGM plates and allowed to recover for 1 hour at 20° C. The animals were then anesthetized by 20 mM NaN3, mounted onto 2% agar pad, and scored under Nomarski optics. For transgenic animals expressing CPR-4 in the pharynx, L4 animals were grown on NGM plates for 24 hours at 20° C. before they were scored for germ cell corpses. Only the posterior arms of intact gonads were scored. Blind tests were carried out in all germ cell corpse quantification experiments.

[2] = tested on: N2 animals; test: Embryonic lethality assay in liquid media with purified proteins; conditions: 2.8 μM tCPR-4 proteins or 0.27 μM rhCTSB, 48 hours
Description: Embryonic lethality and larval arrest assays. For embryonic lethality assays caused by direct irradiation, after irradiated with 100 J/m^2 UV or 500 Gy gamma ray, gravid adults were placed on NGM plates to lay eggs for 4 hours at 25° C. and then removed from the plates. For embryonic lethality assays in liquid media, L4 larvae were cultured in conditioned medium or S-Medium containing the purified proteins at 20° C. for 48 hours, transferred to fresh NGM plates from the liquid media, and allowed to lay eggs for 4 hours at 25° C., before the adult animals were removed. For embryonic lethality assays in transgenic animals expressing CPR-4 in the pharynx, transgenic gravid adults at 24 hours post L4 were placed on NGM plates to lay eggs for 4 hours at 25° C. and then removed from the plates.

[3] = tested on: germline mitotic zone nuclei; test: Germ cell proliferation assay (mitotic nuclei); conditions: 2.8 μM tCPR-4, 48 hours
Description: Growing C. elegans animals in 96-well plates. HB101 bacteria were mixed with 100 μL conditioned medium (0.1 μg/μL) or 100 μL S-Medium containing 2.8 μM of recombinant tCPR-4 proteins (wild-type or mutant) or 0.27 μM recombinant human cathepsin B in a 96-well plate. Approximately 60 L4 larvae were transferred into each well of the plate. After being cultured in liquid media for 48 hours, these animals were scored for the numbers of germ cell corpses and mitotic nuclei. Quantification of mitotic nuclei. L4 animals treated with 2.8 μM of purified tCPR-4 proteins in liquid culture for 48 hours were transferred to NGM plates and allowed to recover for 1 hour at 20° C. They were then dissected to expose their gonads following the protocol described previously. Dissected gonads were fixed and stained with DAPI. The number of germ nuclei and the number of metaphase nuclei in the mitotic zone of each gonad were scored using a Zeiss Nomarski microscope with a DAPI filter.

B1: tCPR-4: recombinant truncated CPR-4 lacking its signal peptide (residues 1-15) (protein, UniProt P43508 81-335, looked up)
Cathepsin B-like cysteine …: IPATFDARTQWPNCMSINNIRDQSDCGSCWAFAAAEAASDRFCIASNGAVNTLLSAEDVLSCCSNCGYGCEGGYPINAWKYLVKSGFCTGGSYEAQFGCKPYSLAPCGETVGNVTWPSCPDDGYDTPACVNKCTNKNYNVAYTADKHFGSTAYAVGKKVSQIQAEIIAHGPVEAAFTVYEDFYQYKTGVYVHTTGQELGGHAIRILGWGTDNGTPYWLVANSWNVNWGENGYFRIIRGTNECGIEHAVVGGVPKV
[1]; 2.8 μM tCPR-4, 48 hours
  Germ cell death in ced-1(e1735); daf2(e1370) mutant: did not further reduce germ cell death
  Germ cell death in ced-1(e1735); pdk-1(sa680) animals: did not reduce germ cell death
[1]; 2.8 μM tCPR-4 proteins or 0.27 μM rhCTSB, L4 larvae, 48 hours
  Germ cell corpses in ced-1(e1735) animals: reduced germ cell corpses
[2]
  Embryonic lethality of treated N2 animals: increased embryonic lethality
[3]
  Germ cell nuclei and metaphase nuclei in the mitotic zone of N2 animals: more germ cell nuclei and more metaphase nuclei in the mitotic zone
